Test results published in paper PMC13545989.

T1: kinesin-1, P33176
T1 chain: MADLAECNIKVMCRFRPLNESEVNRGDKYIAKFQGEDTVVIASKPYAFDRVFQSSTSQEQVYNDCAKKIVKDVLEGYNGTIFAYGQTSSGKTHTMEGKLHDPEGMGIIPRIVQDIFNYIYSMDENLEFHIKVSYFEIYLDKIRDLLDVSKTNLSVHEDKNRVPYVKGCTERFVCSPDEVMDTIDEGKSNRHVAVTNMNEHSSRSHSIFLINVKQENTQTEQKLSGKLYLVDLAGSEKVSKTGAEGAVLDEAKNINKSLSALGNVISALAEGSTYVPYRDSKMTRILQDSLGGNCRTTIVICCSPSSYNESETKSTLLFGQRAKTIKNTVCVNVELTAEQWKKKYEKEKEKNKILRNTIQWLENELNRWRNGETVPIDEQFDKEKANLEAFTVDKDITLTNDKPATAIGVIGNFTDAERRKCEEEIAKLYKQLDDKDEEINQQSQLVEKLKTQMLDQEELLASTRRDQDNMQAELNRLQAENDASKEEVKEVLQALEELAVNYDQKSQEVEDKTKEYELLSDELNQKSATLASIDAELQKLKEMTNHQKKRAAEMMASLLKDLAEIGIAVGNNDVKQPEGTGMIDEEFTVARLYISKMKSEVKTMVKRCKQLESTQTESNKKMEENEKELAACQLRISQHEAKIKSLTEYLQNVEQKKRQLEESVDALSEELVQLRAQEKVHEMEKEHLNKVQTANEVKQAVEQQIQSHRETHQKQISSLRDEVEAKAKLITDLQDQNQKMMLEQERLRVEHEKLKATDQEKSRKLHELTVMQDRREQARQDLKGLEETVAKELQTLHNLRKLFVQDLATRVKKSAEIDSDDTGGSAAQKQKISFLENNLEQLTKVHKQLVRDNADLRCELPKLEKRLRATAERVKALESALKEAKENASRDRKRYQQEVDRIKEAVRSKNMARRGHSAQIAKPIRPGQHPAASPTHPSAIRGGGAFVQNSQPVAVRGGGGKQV


Tests used:
[1] = molecular target: TRAK1/mScarlet fusion protein (wild type) (UniProt Q9UPV9); assay: co-IP; FLAG purification of Miro1/FP/FLAG/I3-01 synthetic cargo from hTERT RPE-1 cell lines co-expressing TRAK/mScarlet variants; immunoblot of the associated motor-adaptor components (kinesin, dynein, dynactin); also done after kinesin RNAi (fig. S4E)
[2] = molecular target: T1, kinesin-1, P33176; assay: FLAG immunoprecipitation of synthetic cargo, immunoblot quantification (anti-KIF5B); details: chain shown with the change; IP: flag; hTERT RPE-1 cells; n=4; parent: est. 1.0; read off a plot

fold enrichment versus TRAK2-driven synthetic cargo [1]	ratio to parent [2]	Molecule
20 fold	–	kinesin-1 (from UniProt P33176 1-963) (natural protein)
–	0.02	TRAK1/mScarlet fusion protein (wild type), Q9UPV9 L92A; F95A (protein) MALVFQFGQPVRAQPLPGLCHGKLIRTNACDVCNSTDLPEVEIISLLEEQLPHYKLRADTIYGYDHDDWLHTPLISPDANIDLTTEQIEETAKYALLCAERVGQMTKTYNDIDAVTRLLEEKERDLELAARIGQSLLKKNKTLTERNELLEEQVEHIREEVSQLRHELSMKDELLQFYTSAAEESEPESVCSTPLKRNESSSSVQNYFHLDSLQKKLKDLEEENVVLRSEASQLKTETITYEEKEQQLVNDCVKELRDANVQIASISEELAKKTEDAARQQEEITHLLSQIVDLQKKAKACAVENEELVQHLGAAKDAQRQLTAELRELEDKYAECMEMLHEAQEELKNLRNKTMPNTTSRRYHSLGLFPMDSLAAEIEGTMRKELQLEEAESPDITHQKRVFETVRNINQVVKQRSLTPSPMNIPGSNQSSAMNSLLSSCVSTPRSSFYGSDIGNVVLDNKTNSIILETEAADLGNDERSKKPGTPGTPGSHDLETALRRLSLRRENYLSERRFFEEEQERKLQELAEKGELRSGSLTPTESIMSLGTHSRFSEFTGFSGMSFSSRSYLPEKLQIVKPLEGSATLHHWQQLAQPHLGGILDPRPGVVTKGFRTLDVDLDEVYCLNDFEEDDTGDHISLPRLATSTPVQHPETSAHHPGKCMSQTNSTFTFTTCRILHPSDELTRVTPSLNSAPTPACGSTSHLKSTPVATPCTPRRLSLAESFTNTRESTTTMSTSLGLVWLLKERGISAAVYDPQSWDRAGRGSLLHSYTPKMAVIPSTPPNSPMQTPTSSPPSFEFKCTSPPYDNFLASKPASSILREVREKNVRSSESQTDVSVSNLNLVDKVRRFGVAKVVNSGRAHVPTLTEEQGPLLCGPPGPAPALVPRGLVPEGLPLRCPTVTSAIGGLQLNSGIRRNRSFPTMVGSSMQMKAPVTLTSGILMGAKLSKQTSLR
–	0.46	TRAK2/mScarlet fusion protein (wild type), O60296 F92A; M95A (protein) MSQSQNAIFTSPTGEENLMNSNHRDSESITDVCSNEDLPEVELVSLLEEQLPQYRLKVDTLFLYENQDWTQSPHQRQHASDALSPVLAEETARYAILGTDRVEQMTKTYNDIDMVTHLLAERDRDLELAARIGQALLKRNHVLSEQNESLEEQLGQAFDQVNQLQHELCKKDELLRIVSIASEESETDSSCSTPLRFNESFSLSQGLLQLEMLQEKLKELEEENMALRSKACHIKTETVTYEEKEQQLVSDCVKELRETNAQMSRMTEELSGKSDELIRYQEELSSLLSQIVDLQHKLKEHVIEKEELKLHLQASKDAQRQLTMELHELQDRNMECLGMLHESQEEIKELRSRSGPTAHLYFSQSYGAFTGESLAAEIEGTMRKKLSLDEESSLFKQKAQQKRVFDTVRIANDTRGRSISFPALLPIPGSNRSSVIMTAKPFESGLQQTEDKSLLNQGSSSEEVAGSSQKMGQPGPSGDSDLATALHRLSLRRQNYLSEKQFFAEEWQRKIQVLADQKEGVSGCVTPTESLASLCTTQSEITDLSSASCLRGFMPEKLQIVKPLEGSQTLYHWQQLAQPNLGTILDPRPGVITKGFTQLPGDAIYHISDLEEDEEEGITFQVQQPLEVEEKLSTSKPVTGIFLPPITSAGGPVTVATANPGKCLSCTNSTFTFTTCRILHPSDITQVTPSSGFPSLSCGSSGSSSSNTAVNSPALSYRLSIGESITNRRDSTTTFSSTMSLAKLLQERGISAKVYHSPISENPLQPLPKSLAIPSTPPNSPSHSPCPSPLPFEPRVHLSENFLASRPAETFLQEMYGLRPSRNPPDVGQLKMNLVDRLKRLGIARVVKNPGAQENGRCQEAEIGPQKPDSAVYLNSGSSLLGGLRRNQSLPVIMGSFAAPVCTSSPKMGVLKED
